Starred links: 1 amine or outer side, 2 acyl side, 3 side chain; linkers in the order of their positions; H or OH if unused. Residues, ends and D or L forms follow the SMILES beside them. CO = O=C([*:1])[*:2]
How the values were obtained:
[1] = target: T1, hK2 (Homo sapiens, UniProt P20151); assay: Inhibition of hK2 by protease inhibitors (substrate H-Pro-Phe-Arg-AMC); assay type: biochemical; details: for inhibition at 100 µM: inhibitor 100 μM (highest recommended working concentration), 90 μM peptide substrate; for remaining activity at 100 µM: inhibitor 100 μM
T1 construct: made in house
T1 sequence (P20151 25-261): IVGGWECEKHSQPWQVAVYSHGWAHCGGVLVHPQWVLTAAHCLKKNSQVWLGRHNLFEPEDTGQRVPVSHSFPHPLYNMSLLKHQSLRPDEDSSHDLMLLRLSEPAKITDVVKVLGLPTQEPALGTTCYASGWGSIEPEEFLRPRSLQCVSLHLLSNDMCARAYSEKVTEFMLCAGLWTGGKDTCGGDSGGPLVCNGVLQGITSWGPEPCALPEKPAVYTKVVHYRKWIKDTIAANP
Description: Activity of hK2 (1.6 pmol) was monitored using the substrate H-Pro-Phe-Arg-AMC (SEQ ID NO: 55) (90 μM). Inhibitors, at commonly used concentrations, and hK2 (8.3 nM) were mixed and proteolysis of 90 μM H-Pro-Phe-Arg-AMC (SEQ ID NO: 55) was followed up to 20 minutes, starting directly or 10 minutes after mixing the enzyme with various inhibitors. Inhibition was evaluated by comparison with […] controls.
The proteolytic activity is expressed in percentage of inhibitor-free control after 10 minutes of incubation.
Therefore, PPACK can be used to obtain fast irreversible inhibition of hK2.

[2] = Serum hydrolysis of hK2 substrates; assay type: in vitro ADME; details: 50% fresh human serum in 50 mM Tris, 0.1 M NaCl, pH 7.8
Description: (§1) Hydrolyses of particular hK2 substrates were carried out at a hK2 concentrations of 1 μg/ml in 50 mM Tris buffer, with 0.1 M NaCl, at pH 7.8. Serum hydrolysis measurements were carried out in 50% fresh human serum in 50 mM Tris buffer, with 0.1 M NaCl, at pH 7.8. The single letter amino acid code was used to designate the peptide sequences used for Table 4. The units FU are arbitrary fluorescence units. The entries “U.D.” were for measurements of less than 0.01 FU/hour.

[3] = target: T1, hK2; assay: Hydrolysis of hK2 substrates by hK2; assay type: biochemical; details: hK2 1 μg/ml, 50 mM Tris, 0.1 M NaCl, pH 7.8
Description: as §1

[4] = 10 minutes of incubation, 8.3 nM hK2, 90 μM substrate, read-out: Activity (%) of hK2, percentage of inhibitor-free control

Compound: NC(N)=NCCC[C@H](NC(=O)[C@@H]1CCCN1C(=O)[C@H](N)Cc1ccccc1)C(=O)CCl [PPACK]
- inhibition of hK2 (in words) ([1]; 5 μM concentration, irreversible): inhibited hK2 rapidly
- Activity (%) of hK2, percentage of inhibitor-free control ([1]; inhibitor 5 μM, 10 minutes of incubation, 8.3 nM hK2, 90 μM substrate): 0%

Compound: PSTI: protease inhibitor present in the prostate (DSLGREAKCYNELNGCTKIYDPVCGTDGNTYPNECVLCFENRKRQTSILIQKSGPC)
- inhibition of hK2 (in words) ([1]; 8 nM hK2, 90 μM substrate): inhibited hK2 weakly
- Activity (%) of hK2, percentage of inhibitor-free control ([1]; inhibitor 0.08 μM, 10 minutes of incubation, 8.3 nM hK2, 90 μM substrate): 100%
- Activity (%) of hK2, percentage of inhibitor-free control ([1]; inhibitor 4 μM, 10 minutes of incubation, 8.3 nM hK2, 90 μM substrate): 89%

Compound: CC(C)[C@H](NC(=O)[C@H](CCCNC(=N)N)NC(=O)N[C@@H](Cc1ccccc1)C(=O)O)C(=O)N[C@H](C=O)CCCNC(=N)N [Antipain, antipain] ({Phe-CO}-Arg-Val-Arg-aldehyde)
- inhibition at 100 µM [1]: ~90%
- remaining activity at 100 µM [1, 4]: 33%
- remaining activity at 500 µM ([1]; inhibitor 500 μM, 10 minutes of incubation, 8.3 nM hK2, 90 μM substrate, read-out: Activity (%) of hK2, percentage of inhibitor-free control): 10%

Compound: Cl.N=C(N)c1ccccc1 [Benzamidine, Benzamidine hydrochloride]
- concentration required for efficient inhibition of hK2 [1]: above 20 mM
- remaining activity at 5000 µM ([1]; inhibitor 5000 μM, 10 minutes of incubation, 8.3 nM hK2, 90 μM substrate, read-out: Activity (%) of hK2, percentage of inhibitor-free control): 27%
- remaining activity at 20000 µM ([1]; inhibitor 20,000 μM, 10 minutes of incubation, 8.3 nM hK2, 90 μM substrate, read-out: Activity (%) of hK2, percentage of inhibitor-free control): 8%

Compound: CC(=O)N[C@@H](CC(C)C)C(=O)N[C@@H](CC(C)C)C(=O)N[C@H](C=O)CCCNC(=N)N [Leupeptin, leupeptin]
- inhibition of hK2 (in words) ([1]; 8 nM hK2, 90 μM substrate): only weakly inhibited
- inhibition at 100 µM [1]: ~60%
- remaining activity at 100 µM [1, 4]: 12%

Compound: SEQ ID NO: 96: hK2 substrate peptide, single letter sequence P6-P′1 (GGQKRRL; listed as Homo sapiens)
- Serum Hydrolysis Rate ([2]; Table 5): 0.02 FU/hr
- hK2 Hydrolysis Rate ([3]; Table 5): 3267.4 FU/hr/m

Compound: SEQ ID NO: 90: hK2 substrate peptide, single letter sequence P7-P′1 (GPAHQDHL; listed as Homo sapiens)
- Serum Hydrolysis Rate ([2]; Table 4): 0.00 FU/hr
- hK2 Hydrolysis Rate ([3]; Table 4): 48.06 FU/hr/m

Compound: SEQ ID NO: 80: hK2 substrate peptide, single letter sequence P7-P′1 (GSNTEKRL; listed as Homo sapiens)
- Serum Hydrolysis Rate ([2]; Table 4): 0.13 FU/hr
- hK2 Hydrolysis Rate ([3]; Table 4): 255.90 FU/hr/m

Compound: SEQ ID NO: 67: hK2 substrate peptide, single letter sequence P7-P′1 (GGGKARRL; listed as Homo sapiens)
- Serum Hydrolysis Rate ([2]; Table 4): 0.03 FU/hr
- hK2 Hydrolysis Rate ([3]; Table 4): 4784.22 FU/hr/m

Compound: SEQ ID NO: 94: hK2 substrate peptide, single letter sequence P6-P′1 (GGKSRRL; listed as Homo sapiens)
- Serum Hydrolysis Rate ([2]; Table 5): 0.03 FU/hr
- hK2 Hydrolysis Rate ([3]; Table 5): 3439.7 FU/hr/m

Compound: SEQ ID NO: 113: hK2 substrate peptide, single letter sequence P7-P′1 (GHEQKRRE; listed as Homo sapiens)
- Serum Hydrolysis Rate ([2]; Table 5): UD (The entries “U.D.” were for measurements of less than 0.01 FU/hour)
- hK2 Hydrolysis Rate ([3]; Table 5): 1473.8 FU/hr/m

Compound: SEQ ID NO: 105: hK2 substrate peptide, single letter sequence P6-P′1 (GGKARRL; listed as Homo sapiens)
- Serum Hydrolysis Rate ([2]; Table 5): UD (The entries “U.D.” were for measurements of less than 0.01 FU/hour)
- hK2 Hydrolysis Rate ([3]; Table 5): 2171.2 FU/hr/m

Compound: SEQ ID NO: 118: hK2 substrate peptide, single letter sequence P6-P′1 (GGKARNL; listed as Homo sapiens)
- Serum Hydrolysis Rate ([2]; Table 5): 0.25 FU/hr
- hK2 Hydrolysis Rate ([3]; Table 5): 828.4 FU/hr/m

Compound: SEQ ID NO: 102: hK2 substrate peptide, single letter sequence P6-P′1 (GGKAFRL; listed as Homo sapiens)
- Serum Hydrolysis Rate ([2]; Table 5): 0.07 FU/hr
- hK2 Hydrolysis Rate ([3]; Table 5): 2374.2 FU/hr/m
